± gives the standard error. This sample holds only a part of the variants without activity.
B1: glmS ribozyme (parent)
chain: AUAAAAGCGCCAGAACUACAGAAAUGUAGUUGACGAGGAGGAGGUUUAUCGAAUUUUCGGCGGAUGCCUCCAAA

Variants of: B1
Assay: self-cleavage kobs at 2500 uM GlcN6P; higher = faster cleavage; RNA array
Settings: with glucosamine-6-phosphate
How it was run: (§1)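 Ribozyme variants carrying barcodes were transcribed in situ on sequenced MiSeq chips by E. coli RNA polymerase and tracked at 37 °C with a hybridised Cy3 probe. They were exposed to 40 μM to 10 mM glucosamine-6-phosphate in HEPES/KCl/Mg(OAc)2 buffer. kobs came from exponential decay fits of normalised per-tile medians, and kcat and KM from weighted Michaelis–Menten fits.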

Variant	self-cleavage kobs at 2500 uM GlcN6P
G32A U47A C70G	4.84e-05 ± 2.3e-05 s⁻¹
G32U U55C	0.000307 ± 7.3e-05 s⁻¹
G29C G63C	< 1e-05 s⁻¹
G37A A64C C67G	< 1e-05 s⁻¹
A12C G44C U65C	< 1e-05 s⁻¹
A12G G29U U47G	6.74e-05 ± 1.5e-05 s⁻¹
A14C G40U A53G	0.000325 ± 5.5e-05 s⁻¹
U45A A52U C67A	8.33e-05 ± 2.5e-05 s⁻¹
G13U A36G G38C C50A	< 1e-05 s⁻¹
C16G G40U U55A G60U	0.000989 ± 0.00047 s⁻¹
U31A C34A C71U	< 1e-05 s⁻¹
C16U C50G U55C	7.17e-05 ± 2.1e-05 s⁻¹
G32U C50U	< 1e-05 s⁻¹
C8U G13U A39U A42G	< 1e-05 s⁻¹
C8A G40C U47A A64U	< 1e-05 s⁻¹
A6G A33G A42U G60U	< 1e-05 s⁻¹
G35A A42G U45G	< 1e-05 s⁻¹
U30C U55A U69G	7.73e-05 ± 1.4e-05 s⁻¹
C11U C34G U54C	< 1e-05 s⁻¹
G38C G43C U56G C67A U69A	< 1e-05 s⁻¹
C11U G60A G62U C67G	< 1e-05 s⁻¹
G9C A33C A48G U54G	< 1e-05 s⁻¹
G7U G43A U47G U56G	< 1e-05 s⁻¹

Variant	self-cleavage kobs at 2500 uM GlcN6P
A42U U55A G60U G63C	< 1e-05 s⁻¹
U30A A33U C34A A36C G37C U57G	< 1e-05 s⁻¹
A12C U31C U56C	0.000204 ± 6.7e-05 s⁻¹
G7A C10U G35U G43U	< 1e-05 s⁻¹
U30G U31C U47C G66A	2.71e-05 ± 1.2e-05 s⁻¹
G35A U56A C68G	< 1e-05 s⁻¹
C10G G37C U49G C68G U69G	9.24e-05 ± 4.5e-05 s⁻¹
A14U C16U U47G C58U G60A U69G	0.000102 ± 2.6e-05 s⁻¹
C11U A12G A15G	0.000326 ± 8.5e-05 s⁻¹
U31G A39U A64C	6.17e-05 ± 2.3e-05 s⁻¹
C8A G13C A36G U56G C70U	< 1e-05 s⁻¹
C8A C16U A33U C68U	< 1e-05 s⁻¹
G9U A12C U30C	< 1e-05 s⁻¹
A6G G40A A48G A53G C67U	< 1e-05 s⁻¹
G9U U30A G38A G40C U56A C70A	< 1e-05 s⁻¹
G9C U45A	< 1e-05 s⁻¹
G7U U30G A33U G44C	< 1e-05 s⁻¹
G32U A48U C67U	< 1e-05 s⁻¹
G7A C8G G9C A15C U47G C71A	< 1e-05 s⁻¹
C61U U65A C67U C70A	5.06e-05 ± 2.1e-05 s⁻¹
G9U C50U C68U	< 1e-05 s⁻¹
C11U A33U G59A	0.000169 ± 6.1e-05 s⁻¹
G7C C11A G60C	< 1e-05 s⁻¹

Variant	self-cleavage kobs at 2500 uM GlcN6P
G32U A53C U55A	5.38e-05 ± 1.8e-05 s⁻¹
C34G U47C G66A	< 1e-05 s⁻¹
A39C U47A G66C	0.000411 ± 8.5e-05 s⁻¹
C8G A52G U55G C67G C68U	5.08e-05 ± 1.6e-05 s⁻¹
U30C C61U U65A	< 1e-05 s⁻¹
C11G U31A A42C	< 1e-05 s⁻¹
A6G G9C C70G	< 1e-05 s⁻¹
G7C A14U G32U A36G G43C	< 1e-05 s⁻¹
U46G U55C G66A	0.00233 ± 0.00084 s⁻¹
C34U G60A C68U	< 1e-05 s⁻¹
A6C A14U C50G C61G C68G C70U	0.000499 ± 0.00017 s⁻¹
A42U G43A G60U	< 1e-05 s⁻¹
U45G C50U U56G G59C	< 1e-05 s⁻¹
U47G A48U U65G	0.000213 ± 5.9e-05 s⁻¹
C19A G32C	4.68e-05 ± 1.6e-05 s⁻¹
U55A G59A A64G	2.94e-05 ± 1.4e-05 s⁻¹
A5U A64U	8.83e-05 ± 2.8e-05 s⁻¹
G13U A48C C61A	< 1e-05 s⁻¹
A14C U45A A64U	4.3e-05 ± 1.9e-05 s⁻¹
A39G U54A C71G	0.00114 ± 0.00046 s⁻¹
C16U U47A C58G	2.28e-05 ± 1.1e-05 s⁻¹
A15U G44C A53U C58G C70U	< 1e-05 s⁻¹
U47C U56A A64G	0.000616 ± 0.00019 s⁻¹

Variant	self-cleavage kobs at 2500 uM GlcN6P
G38C U47C U49A	< 1e-05 s⁻¹
U54G C61U C70U	5.89e-05 ± 1.4e-05 s⁻¹
G13A A36G C58G C68G	0.000157 ± 5.4e-05 s⁻¹
G32C A36G U47C	< 1e-05 s⁻¹
A14C C16U G43C	< 1e-05 s⁻¹
U31C G41C U45A A52G C61G	< 1e-05 s⁻¹
A6C C8G A14C A48C	< 1e-05 s⁻¹
A36G U49G U55G	< 1e-05 s⁻¹
C8A C16U A36C A42U	< 1e-05 s⁻¹
U56A G63U	< 1e-05 s⁻¹
G29C G40C U54A	6.31e-05 ± 2.5e-05 s⁻¹
A14U U30C G62C U69G	< 1e-05 s⁻¹
G32C U54C G63U	< 1e-05 s⁻¹
U55A U56A A64G	0.0035 ± 0.00087 s⁻¹
A15U U31G G40A	0.000101 ± 2.5e-05 s⁻¹
G13C G40A G60U	< 1e-05 s⁻¹
G40U A53G U65C	4.92e-05 ± 1.4e-05 s⁻¹
C8A G41C C58U	< 1e-05 s⁻¹
C10G G41A C58G	< 1e-05 s⁻¹
A6C U55G C71U	6.13e-05 ± 2e-05 s⁻¹
C11G G40A A53U	< 1e-05 s⁻¹
U30G G63C A64U	< 1e-05 s⁻¹
A33G A42U U49A G60A	< 1e-05 s⁻¹

Variant	self-cleavage kobs at 2500 uM GlcN6P
C10A C16U A64U	< 1e-05 s⁻¹
C11U U46A G62U	< 1e-05 s⁻¹
A15U A48G G51U	< 1e-05 s⁻¹
C11A G35U C58G	< 1e-05 s⁻¹
G7C A15U U31C	< 1e-05 s⁻¹
C11A U54A U55G	0.000135 ± 4.1e-05 s⁻¹
G37U A42C U47A A48U U56A	< 1e-05 s⁻¹
G9A C10U U31C G44A	< 1e-05 s⁻¹
A15G G38A A48U	< 1e-05 s⁻¹
A15G A36U G43C	< 1e-05 s⁻¹
C11G A14G G43U G60C	< 1e-05 s⁻¹
C16G U30C G32C C58G	5.09e-05 ± 2.2e-05 s⁻¹
U46G C61U A64G	< 1e-05 s⁻¹
U65G C67G C68G	3.55e-05 ± 1.4e-05 s⁻¹
A14U A48C U69A	< 1e-05 s⁻¹
C10G U46G U55A A64C U69G	< 1e-05 s⁻¹
G26U U30A A52G C71G	0.000299 ± 0.00014 s⁻¹
C11U G13C U46G A64U	< 1e-05 s⁻¹
C8U U31A G43U U55A	< 1e-05 s⁻¹
C16A G37U C61G U69G	5.77e-05 ± 1.7e-05 s⁻¹
A14U G51A C58G G60U G63U U65A	< 1e-05 s⁻¹
G51A U56C C70G	< 1e-05 s⁻¹
A12C G37U G38U	< 1e-05 s⁻¹

Variant	self-cleavage kobs at 2500 uM GlcN6P
A14U G41U U54A	0.000104 ± 3.2e-05 s⁻¹
A39U G51C C71G	< 1e-05 s⁻¹
G29U U55C G60C C68G	< 1e-05 s⁻¹
A42C A48U G66C	< 1e-05 s⁻¹
C11U A15G G29U	< 1e-05 s⁻¹
G38U U57A G60C G66U	< 1e-05 s⁻¹
G13U A36G G60A C61U	< 1e-05 s⁻¹
A15G U49G C50A G60C	< 1e-05 s⁻¹
G38C G60C G66U	< 1e-05 s⁻¹
C8U U57G C71G	< 1e-05 s⁻¹
G35U A48G C50G	0.000328 ± 0.00011 s⁻¹
G41C G43U G59A	< 1e-05 s⁻¹
A39C G43U A48U G51U	< 1e-05 s⁻¹
A6C G41U C58U C68U	< 1e-05 s⁻¹
A36C U49G G63C	< 1e-05 s⁻¹
G37A G44C	4.54e-05 ± 1.3e-05 s⁻¹
A36G G41A C67U	< 1e-05 s⁻¹
A15C A36C G59A U65A	< 1e-05 s⁻¹
U31C A33U U46A U57C C70U C71G	< 1e-05 s⁻¹
C8A U46G C61A U65C	< 1e-05 s⁻¹
C8A G37A G41U A48U C50G U55A	< 1e-05 s⁻¹
G41U G51U G62C	< 1e-05 s⁻¹
G37U G38U U49C G59A	< 1e-05 s⁻¹

Variant	self-cleavage kobs at 2500 uM GlcN6P
G38A G44C	< 1e-05 s⁻¹
C11G C50G C58A C61A	0.000322 ± 0.00011 s⁻¹
U31C A64C U65G	< 1e-05 s⁻¹
G40C A52G U55G	4.2e-05 ± 1.1e-05 s⁻¹
C10U A12C G66A	3.37e-05 ± 1.5e-05 s⁻¹
G37C A42C U69A	< 1e-05 s⁻¹
G32C G37U C70G	9.68e-05 ± 4.2e-05 s⁻¹
G29A G35U A42G A52U	< 1e-05 s⁻¹
C11U C34G A52U	< 1e-05 s⁻¹
G7C A36G G37C U56A G66A	< 1e-05 s⁻¹
G29U G32A A53C	0.000152 ± 3e-05 s⁻¹
A15G U55G C71U	0.00368 ± 0.0014 s⁻¹
A14U U46A A52U C58A	< 1e-05 s⁻¹
U31C G37A G59A C61U G66A	< 1e-05 s⁻¹
G29C C34A U47A U56C	< 1e-05 s⁻¹
A6G G59U C61U	< 1e-05 s⁻¹
G13U C16U A39U A53G	0.000359 ± 0.00012 s⁻¹
A15G G29U U47G U54A	0.000248 ± 6.2e-05 s⁻¹
G9A C16G U69A	< 1e-05 s⁻¹

Variants of: B1
Assay: self-cleavage kobs at 10000 uM GlcN6P; higher = faster cleavage; RNA array
Settings: with glucosamine-6-phosphate
How it was run: as §1

Variant	self-cleavage kobs at 10000 uM GlcN6P
G32U U55C	0.000584 ± 6.9e-05 s⁻¹
A14C G40U A53G	0.000591 ± 0.0001 s⁻¹
G32U C50U	< 1e-05 s⁻¹
U30A A33U C34A A36C G37C U57G	< 1e-05 s⁻¹
C11U A12G A15G	0.000749 ± 0.00017 s⁻¹
U31G A39U A64C	4.91e-05 ± 1.3e-05 s⁻¹
G9U U30A G38A G40C U56A C70A	< 1e-05 s⁻¹
C11U A33U G59A	0.000262 ± 5.4e-05 s⁻¹
C8G A52G U55G C67G C68U	3.18e-05 ± 1.4e-05 s⁻¹
C11G U31A A42C	< 1e-05 s⁻¹
U46G U55C G66A	0.00269 ± 0.00067 s⁻¹
U30G G63C A64U	< 1e-05 s⁻¹
C11A U54A U55G	0.000124 ± 1.8e-05 s⁻¹
C11U G13C U46G A64U	< 1e-05 s⁻¹
A42C A48U G66C	< 1e-05 s⁻¹
A15C A36C G59A U65A	< 1e-05 s⁻¹
G38A G44C	< 1e-05 s⁻¹
C11U C34G A52U	< 1e-05 s⁻¹
G29U G32A A53C	0.000364 ± 0.0001 s⁻¹
U31C G37A G59A C61U G66A	< 1e-05 s⁻¹
